Changes are numbered by the printed parent chain. Numbers in names are those of the source.

The target of assay [1] is HER2-ECD (in house) (UniProt P04626). Nature of the assay: SPR (refers to Table G3).
Assay [2] shares this target. Kind of assay: SPR (BIAcore T200), Fab captured on anti-Fab chip, HER2-ECD as analyte, 25 C, 1:1 model. On the technique in general: SPR reads the build-up and loss of mass on a sensor chip optically.
For assay [3], the target named is T1, IL-13 (in-house) (UniProt P35225 35-146, limits assumed).
T1 construct: SPR analyte
Kind of assay: SPR (BIAcore T200), Fab captured on anti-Fab chip, IL-13 as analyte, 25 C, 1:1 model.

Assay [4] addresses T1, IL-13 (in-house). Nature of the assay: SPR.
Assay [5] addresses T1, IL-13 (in-house). Nature of the assay: SPR (BIAcore T200), Fab captured on anti-Fab chip, IL-13 as analyte; n.d. = binding was not detected.
Assay [6] deals with T2, MET-R Fc (R&D Systems, catalog number 8614-MT) (UniProt P08581 25-932).
T2 construct: Bought reagent used as SPR analyte; not shown: Fc part of the bought fusion protein
Kind of assay: SPR (BIAcore T200), Fab captured on anti-Fab chip, MET-R Fc as analyte, 25 C, 1:1 model.

The target of assay [7] is T2, MET-R Fc (R&D Systems, catalog number …). Nature of the assay: SPR (BIAcore T200), Fab captured on anti-Fab chip, MET-R Fc as analyte; n.d. = binding was not detected.

As usually defined, the Kd is the constant that tells how readily two partners part at equilibrium. Usually koff stands for the rate constant with which the complex falls apart. A higher koff goes with a short-lived complex. By kon is commonly meant the second-order rate constant of association. A lower kon goes with slower complex formation. In the case of anti-HER2 Fab variant CDR H3 W95D, the fold change of KD against the unmodified parent in assay [1] came to 30 fold. Also, in assay [2], the Kd was 36.5 nM, the koff amounted to 0.00294 s⁻¹ and the kon came to 80000 M⁻¹ s⁻¹.

B1: Parental anti-IL-13 Fab (lebrikizumab) (Fab, V domains shown)
VH: EVTLRESGPALVKPTQTLTLTCTVSGFSLSAYSVNWIRQPPGKALEWLAMIWGDGKIVYNSALKSRLTISKDTSKNQVVLTMTNMDPVDTATYYCAGDGYYPYAMDNWGQGSLVTVSS
VL: DIVLTQSPDSLSVSLGERATINCRASKSVDSYGNSFMHWYQQKPGQPPKLLIYLASNLESGVPDRFSGSGSGTDFTLTISSLQAEDVAVYYCQQNNEDPRTFGGGTKVEIK
notes: Tested as Fab
In assay [3], B1 had a Kd of 0.05 nM, an off-rate constant (koff) of 5e-05 s⁻¹ and a kon of 1.17e+06 M⁻¹ s⁻¹.

B2: anti-IL-13 Fab variant CDR L3 D94A:R96A (Fab, V domains shown)
VH: B1 VH
VL: B1 VL with D98A, R100A
notes: Fab; variable domains only; Kabat numbering; also called D94: R96A double substitution
On to B2, for which, in assay [3], the Kd amounted to 0.7 nM, the koff was 0.00037 s⁻¹ and the kon was 528000 M⁻¹ s⁻¹. In assay [4], the “fold loss in binding affinity against the parental anti-IL-13 Fab” value is approximately 10 fold.

B3: anti-IL-13 Fab variant CDR H3 D95A (Fab, name in Kabat numbering, V domains shown)
VH: B1 VH with D98A
VL: B1 VL
notes: Fab; variable domains only; Kabat numbering
In the case of B3, in assay [3], the Kd was 1.3 nM, the koff was 0.00111 s⁻¹ and the kon was 882000 M⁻¹ s⁻¹.

B4: anti-IL-13 Fab variant CDR L3 N92A (Fab, V domains shown)
VH: B1 VH
VL: B1 VL with N96A
notes: as for B3
In assay [3], B4 displayed a Kd of 0.03 nM, a koff of 3e-05 s⁻¹ and a kon of 1.03e+06 M⁻¹ s⁻¹.

B5: anti-IL-13 Fab variant CDR H3 D95A:P99A (Fab, name in Kabat numbering, V domains shown)
VH: B1 VH with D98A, P102A
VL: B1 VL
notes: as for B3
Turning to B5, in assay [5], the binding result was “no binding (tested: analyte up to 20 mM as printed)”.

B6: anti-IL-13 Fab variant CDR L3 R96A (Fab, V domains shown)
VH: B1 VH
VL: B1 VL with R100A
notes: as for B3
For the molecule B6, in assay [3], the Kd was 0.5 nM, the koff turned out to be 0.00044 s⁻¹ and the kon worked out at 825000 M⁻¹ s⁻¹. The “fold loss in binding affinity against the parental anti-IL-13 Fab” value in assay [4] was approximately 10 fold.

B7: anti-IL-13 Fab variant CDR L3 D94A (Fab, V domains shown)
VH: B1 VH
VL: B1 VL with D98A
notes: as for B3
As for B7, in assay [3], binding was put at a Kd of 0.02 nM, the koff stood at 3e-05 s⁻¹ and the kon amounted to 1.24e+06 M⁻¹ s⁻¹.

B8: anti-IL-13 Fab variant CDR H3 P99A (Fab, name in Kabat numbering, V domains shown)
VH: B1 VH with P102A
VL: B1 VL
notes: as for B3
For B8, in assay [3], binding was characterised by a dissociation constant (Kd) of 1.8 nM, the koff is 0.00269 s⁻¹ and the kon is 1.5e+06 M⁻¹ s⁻¹.

B9: Parental anti-MET Fab (onartuzumab / 5D5) (Fab, V domains shown)
VH: EVQLVESGGGLVQPGGSLRLSCAASGYTFTSYWLHWVRQAPGKGLEWVGMIDPSNSDTRFNPNFKDRFTISADTSKNTAYLQMNSLRAEDTAVYYCATYRSYVTPLDYWGQGTLVTVSS
VL: DIQMTQSPSSLSASVGDRVTITCKSSQSLLYTSSQKNYLAWYQQKPGKAPKLLIYWASTRESGVPSRFSGSGSGTDFTLTISSLQPEDFATYYCQQYYAYPWTFGQGTKVEIK
notes: Tested as Fab
As for B9, in assay [6], the Kd was less than 0.05 nM, the koff was less than 1e-05 s⁻¹ and the on-rate (kon) came to 179000 M⁻¹ s⁻¹.

B10: anti-MET Fab variant CDR L3 Y91A:Y94A (Fab, V domains shown)
VH: B9 VH
VL: B9 VL with Y97A, Y100A
notes: as for B3
For B10, the binding result in assay [7] was “no binding (tested: analyte up to 75 nM)”.

B11: anti-MET Fab variant CDR L3 Y94A (Fab, V domains shown)
VH: B9 VH
VL: B9 VL with Y100A
notes: as for B3
Take B11: in assay [6], the Kd turned out to be 5.7 nM, the koff amounted to 0.00065 s⁻¹ and the kon was found to be 115000 M⁻¹ s⁻¹.

B12: anti-MET Fab variant CDR L3 Y92A (Fab, V domains shown)
VH: B9 VH
VL: B9 VL with Y98A
notes: as for B3
With B12, in assay [6], the Kd was 1.1 nM, the koff came to 0.00019 s⁻¹ and the kon worked out at 172000 M⁻¹ s⁻¹.

B13: anti-MET Fab variant CDR L3 P95A (Fab, V domains shown)
VH: B9 VH
VL: B9 VL with P101A
notes: as for B3
For B13, in assay [6], the Kd was less than 0.06 nM, the koff was less than 1e-05 s⁻¹ and the kon was 153000 M⁻¹ s⁻¹.

B14: anti-MET Fab variant CDR L3 Y91A:W96A (Fab, V domains shown)
VH: B9 VH
VL: B9 VL with Y97A, W102A
notes: as for B3
On to B14, for which the binding result in assay [7] is listed as “no binding (tested: analyte up to 75 nM)”.

B15: anti-MET Fab variant CDR L3 W96A (Fab, V domains shown)
VH: B9 VH
VL: B9 VL with W102A
notes: as for B3
In the case of B15, in assay [6], binding was put at a Kd of 2.1 nM, the koff worked out at 0.00017 s⁻¹ and the kon was determined as 84000 M⁻¹ s⁻¹.

B16: anti-MET Fab variant CDR L3 Y91A (Fab, V domains shown)
VH: B9 VH
VL: B9 VL with Y97A
notes: Fab; variable domains only
As to B16, in assay [6], the affinity, expressed as Kd, was 0.8 nM; the koff was 6e-05 s⁻¹; the kon was 70000 M⁻¹ s⁻¹.

For the origin of these results see patent US20220056134A1 (Genentech, published 2022).
